The supplement of paper PMC5998384

Assays:
[1] = system: HeLa Kyoto; assay: melting temperature (median over replicates), in situ; higher = more thermally stable
[2] = system: HeLa Kyoto; assay: solubility change mitosis vs G1/S (difference of NP-40 vs SDS log2 ratios) (log2 ratio difference); higher = more soluble in mitosis
[3] = system: HeLa Kyoto; assay: solubility in G1/S (NP-40 vs SDS abundance) (log2 ratio); higher = more soluble; details: cell cycle stage: G1/S
[4] = system: HeLa Kyoto; assay: thermal stability score vs G1/S (z-score of summed log2 fold changes over temperatures); higher = more thermally stable than in G1/S
[5] = cell cycle stage: early G1 (4.5 h after nocodazole release)
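Throughout, for melting temperature (median over replicates), in situ: HeLa Kyoto cells synchronized by double thymidine or nocodazole block, proteins quantified by TMT10plex mass spectrometry, three independent biological replicates.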
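Throughout, for solubility change mitosis vs G1/S (difference of NP-40 vs SDS log2 ratios): synchronized HeLa Kyoto cells (double thymidine block for G1/S, nocodazole release for mitosis), protein amounts in NP-40 versus SDS lysates quantified by mass spectrometry, three biological replicates.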
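Throughout, for solubility in G1/S (NP-40 vs SDS abundance): HeLa Kyoto cells arrested at G1/S by double thymidine block, proteins quantified by TMT10plex mass spectrometry in mild NP-40 versus SDS extracts, three biological replicates.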
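Throughout, for thermal stability score vs G1/S (z-score of summed log2 fold changes over temperatures): synchronized HeLa Kyoto cells, proteins quantified by TMT10plex mass spectrometry, three biological replicates, mitosis taken 0.5 h after nocodazole release, G1/S directly after double thymidine block.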

Sequence	melting temperature ([1]; cell cycle stage: G1/S)	melting temperature ([1]; cell cycle stage: mitosis)	solubility change mitosis (log2) [2]	solubility in G1/S (log2) [3]	thermal stability score [4, 5]	thermal stability score ([4]; cell cycle stage: mitosis)
MSSESSKKRKPKVIRSDGAPAEGKRNRSDTEQEGKYYSEEAEVDLRDPGRDYELYKYTCQELQRLMAEIQDLKSRGGKDVAIEIEERRIQSCVHFMTLKKLNRLAHIRLKKGRDQTHEAKQKVDAYHLQLQNLLYEVMHLQKEITKCLEFKSKHEEIDLVSLEEFYKEAPPDISKAEVTMGDPHQQTLARLDWELEQRKRLAEKYRECLSNKEKILKEIEVKKEYLSSLQPRLNSIMQASLPVQEYLFMPFDQAHKQYETARHLPPPLYVLFVQATAYGQACDKTLSVAIEGSVDEAKALFKPPEDSQDDESDSDAEEEQTTKRRRPTLGVQLDDKRKEMLKRHPLSVMLDLKCKDDSVLHLTFYYLMNLNIMTVKAKVTTAMELITPISAGDLLSPDSVLSCLYPGDHGKKTPNPANQYQFDKVGILTLSDYVLELGHPYLWVQKLGGLHFPKEQPQQTVIADHSLSASHMETTMKLLKTRVQSRLALHKQFASLEHGIVPVTSDCQYLFPAKVVSRLVKWVTVAHEDYMELHFTKDIVDAGLAGDTNLYYMALIERGTAKLQAAVVLNPGYSSIPPVFQLCLNWKGEKTNSNDDNIRAMEGEVNVCYKELCGPWPSHQLLTNQLQRLCVLLDVYLETESHDDSVEGPKEFPQEKMCLRLFRGPSRMKPFKYNHPQGFFSHR [THOC5]	51.4 °C	50.4 °C	0.281	-0.323	0.533	0.546
MSSFGAGKTKEVIFSVEDGSVKMFLRGRPVPMMIPDELAPTYSLDTRSELPSCRLKLEWVYGYRGRDCRANLYLLPTGEIVYFVASVAVLYSVEEQRQRHYLGHNDDIKCLAIHPDMVTIATGQVAGTTKEGKPLPPHVRIWDSVSLSTLHVLGLGVFDRAVCCVGFSKSNGGNLLCAVDESNDHMLSVWDWAKETKVVDVKCSNEAVLVATFHPTDPTVLITCGKSHIYFWTLEGGSLSKRQGLFEKHEKPKYVLCVTFLEGGDVVTGDSGGNLYVWGKGGNRITQAVLGAHDGGVFGLCALRDGTLVSGGGRDRRVVLWGSDYSKLQEVEVPEDFGPVRTVAEGHGDTLYVGTTRNSILQGSVHTGFSLLVQGHVEELWGLATHPSRAQFVTCGQDKLVHLWSSDSHQPLWSRIIEDPARSAGFHPSGSVLAVGTVTGRWLLLDTETHDLVAIHTDGNEQISVVSFSPDGAYLAVGSHDNLVYVYTVDQGGRKVSRLGKCSGHSSFITHLDWAQDSSCFVTNSGDYEILYWDPATCKQITSADAVRNMEWATATCVLGFGVFGIWSEGADGTDINAVARSHDGKLLASADDFGKVHLFSYPCCQPRALSHKYGGHSSHVTNVAFLWDDSMALTTGGKDTSVLQWRVV [EML2]	53.1 °C	53.4 °C	-0.207	-0.16	-0.964	-1.37
MSSGAASGTGRGRPRGGGPGPGDPPPSETHKLVVVGGGGVGKSALTIQFIQSYFVSDYDPTIEDSYTKICSVDGIPARLDILDTAGQEEFGAMREQYMRAGHGFLLVFAINDRQSFNEVGKLFTQILRVKDRDDFPVVLVGNKADLESQRQVPRSEASAFGASHHVAYFEASAKLRLNVDEAFEQLVRAVRKYQEQELPPSPPSAPRKKGGGCPCVLL [RRAS]	56.1 °C	56 °C	-0.0644	0.28	0.904	-0.296
MSSILPFTPPVVKRLLGWKKSAGGSGGAGGGEQNGQEEKWCEKAVKSLVKKLKKTGRLDELEKAITTQNCNTKCVTIPSTCSEIWGLSTPNTIDQWDTTGLYSFSEQTRSLDGRLQVSHRKGLPHVIYCRLWRWPDLHSHHELKAIENCEYAFNLKKDEVCVNPYHYQRVETPVLPPVLVPRHTEILTELPPLDDYTHSIPENTNFPAGIEPQSNYIPETPPPGYISEDGETSDQQLNQSMDTGSPAELSPTTLSPVNHSLDLQPVTYSEPAFWCSIAYYELNQRVGETFHASQPSLTVDGFTDPSNSERFCLGLLSNVNRNATVEMTRRHIGRGVRLYYIGGEVFAECLSDSAIFVQSPNCNQRYGWHPATVCKIPPGCNLKIFNNQEFAALLAQSVNQGFEAVYQLTRMCTIRMSFVKGWGAEYRRQTVTSTPCWIELHLNGPLQWLDKVLTQMGSPSVRCSSMS [SMAD2]	50.5 °C	49.9 °C	-0.177	-0.0287	0.527	1.37
MSSKKNRKRLNQSAENGSSLPSAASSCAEARAPSAGSDFAATSGTLTVTNLLEKVDDKIPKTFQNSLIHLGLNTMKSANICIGRPVLLTSLNGKQEVYTAWPMAGFPGGKVGLSEMAQKNVGVRPGDAIQVQPLVGAVLQAEEMDVALSDKDMEINEEELTGCILRKLDGKIVLPGNFLYCTFYGRPYKLQVLRVKGADGMILGGPQSDSDTDAQRMAFEQSSMETSSLELSLQLSQLDLEDTQIPTSRSTPYKPIDDRITNKASDVLLDVTQSPGDGSGLMLEEVTGLKCNFESAREGNEQLTEEERLLKFSIGAKCNTDTFYFISSTTRVNFTEIDKNSKEQDNQFKVTYDMIGGLSSQLKAIREIIELPLKQPELFKSYGIPAPRGVLLYGPPGTGKTMIARAVANEVGAYVSVINGPEIISKFYGETEAKLRQIFAEATLRHPSIIFIDELDALCPKREGAQNEVEKRVVASLLTLMDGIGSEVSEGQVLVLGATNRPHALDAALRRPGRFDKEIEIGVPNAQDRLDILQKLLRRVPHLLTEAELLQLANSAHGYVGADLKVLCNEAGLCALRRILKKQPNLPDVKVAGLVKITLKDFLQAMNDIRPSAMREIAIDVPNVSWSDIGGLESIKLKLEQAVEWPLKHPESFIRMGIQPPKGVLLYGPPGCSKTMIAKALANESGLNFLAIKGPELMNKYVGESERAVRETFRKARAVAPSIIFFDELDALAVERGSSLGAGNVADRVLAQLLTEMDGIEQLKDVTILAATNRPDRIDKALMRPGRIDRIIYVPLPDAATRREIFKLQFHSMPVSNEVDLDELILQTDAYSGAEIVAVCREAALLALEEDIQANLIMKRHFTQALSTVTPRIPESLRRFYEDYQEKSGLHTL [SPATA5]	53 °C	51.7 °C	0.184	-0.296	1.78	-0.413
MSSNECFKCGRSGHWARECPTGGGRGRGMRSRGRGGFTSDRGFQFVSSSLPDICYRCGESGHLAKDCDLQEDACYNCGRGGHIAKDCKEPKREREQCCYNCGKPGHLARDCDHADEQKCYSCGEFGHIQKDCTKVKCYRCGETGHVAINCSKTSEVNCYRCGESGHLARECTIEATA [CNBP]	57.6 °C	58.8 °C	-0.0883	-0.223	-1.16	-2.48
MSSNSFPYNEQSGGGEATELGQEATSTISPSGAFGLFSSDLKKNEDLKQMLESNKDSAKLDAMKRIVGMIAKGKNASELFPAVVKNVASKNIEIKKLVYVYLVRYAEEQQDLALLSISTFQRALKDPNQLIRASALRVLSSIRVPIIVPIMMLAIKEASADLSPYVRKNAAHAIQKLYSLDPEQKEMLIEVIEKLLKDKSTLVAGSVVMAFEEVCPDRIDLIHKNYRKLCNLLVDVEEWGQVVIIHMLTRYARTQFVSPWKEGDELEDNGKNFYESDDDQKEKTDKKKKPYTMDPDHRLLIRNTKPLLQSRNAAVVMAVAQLYWHISPKSEAGIISKSLVRLLRSNREVQYIVLQNIATMSIQRKGMFEPYLKSFYVRSTDPTMIKTLKLEILTNLANEANISTLLREFQTYVKSQDKQFAAATIQTIGRCATNILEVTDTCLNGLVCLLSNRDEIVVAESVVVIKKLLQMQPAQHGEIIKHMAKLLDSITVPVARASILWLIGENCERVPKIAPDVLRKMAKSFTSEDDLVKLQILNLGAKLYLTNSKQTKLLTQYILNLGKYDQNYDIRDRTRFIRQLIVPNVKSGALSKYAKKIFLAQKPAPLLESPFKDRDHFQLGTLSHTLNIKATGYLELSNWPEVAPDPSVRNVEVIELAKEWTPAGKAKQENSAKKFYSESEEEEDSSDSSSDSESESGSESGEQGESGEEGDSNEDSSEDSSSEQDSESGRESGLENKRTAKRNSKAKGKSDSEDGEKENEKSKTSDSSNDESSSIEDSSSDSESESEPESESESRRVTKEKEKKTKQDRTPLTKDVSLLDLDDFNPVSTPVALPTPALSPSLMADLEGLHLSTSSSVISVSTPAFVPTKTHVLLHRMSGKGLAAHYFFPRQPCIFGDKMVSIQITLNNTTDRKIENIHIGEKKLPIGMKMHVFNPIDSLEPEGSITVSMGIDFCDSTQTASFQLCTKDDCFNVNIQPPVGELLLPVAMSEKDFKKEQGVLTGMNETSAVIIAAPQNFTPSVIFQKVVNVANVGAVPSGQDNIHRFAAKTVHSGSLMLVTVELKEGSTAQLIINTEKTVIGSVLLRELKPVLSQG [AP3B1]	50.6 °C	50 °C	-0.0973	-0.0793	-0.704	-0.939
MSSRKLSGPKGRRLSIHVVTWNVASAAPPLDLSDLLQLNNRNLNLDIYVIGLQELNSGIISLLSDAAFNDSWSSFLMDVLSPLSFIKVSHVRMQGILLLVFAKYQHLPYIQILSTKSTPTGLFGYWGNKGGVNICLKLYGYYVSIINCHLPPHISNNYQRLEHFDRILEMQNCEGRDIPNILDHDLIIWFGDMNFRIEDFGLHFVRESIKNRCYGGLWEKDQLSIAKKHDPLLREFQEGRLLFPPTYKFDRNSNDYDTSEKKRKPAWTDRILWRLKRQPCAGPDTPIPPASHFSLSLRGYSSHMTYGISDHKPVSGTFDLELKPLVSAPLIVLMPEDLWTVENDMMVSYSSTSDFPSSPWDWIGLYKVGLRDVNDYVSYAWVGDSKVSCSDNLNQVYIDISNIPTTEDEFLLCYYSNSLRSVVGISRPFQIPPGSLREDPLGEAQPQI [INPP5K]	–	51.8 °C	-0.0846	-0.384	-0.0552	0.149
MSSRKSKSNSLIHTECLSQVQRILRERFCRQSPHSNLFGVQVQYKHLSELLKRTALHGESNSVLIIGPRGSGKTMLINHALKELMEIEEVSENVLQVHLNGLLQINDKIALKEITRQLNLENVVGDKVFGSFAENLSFLLEALKKGDRTSSCPVIFILDEFDLFAHHKNQTLLYNLFDISQSAQTPIAVIGLTCRLDILELLEKRVKSRFSHRQIHLMNSFGFPQYVKIFKEQLSLPAEFPDKVFAEKWNENVQYLSEDRSVQEVLQKHFNISKNLRSLHMLLMLALNRVTASHPFMTAVDLMEASQLCSMDSKANIVHGLSVLEICLIIAMKHLNDIYEEEPFNFQMVYNEFQKFVQRKAHSVYNFEKPVVMKAFEHLQQLELIKPMERTSGNSQREYQLMKLLLDNTQIMNALQKYPNCPTDVRQWATSSLSWL [ORC4]	48.8 °C	49.6 °C	-0.248	0.194	1.97	2.38
MSSSHFASRHRKDISTEMIRTKIAHRKSLSQKENRHKEYERNRHFGLKDVNIPTLEGRILVELDETSQGLVPEKTNVKPRAMKTILGDQRKQMLQKYKEEKQLQKLKEQREKAKRGIFKVGRYRPDMPCFLLSNQNAVKAEPKKAIPSSVRITRSKAKDQMEQTKIDNESDVRAIRPGPRQTSEKKVSDKEKKVVQPVMPTSLRMTRSATQAAKQVPRTVSSTTARKPVTRAANENEPEGKVPSKGRPAKNVETKPDKGISCKVDSEENTLNSQTNATSGMNPDGVLSKMENLPEINTAKIKGKNSFAPKDFMFQPLDGLKTYQVTPMTPRSANAFLTPSYTWTPLKTEVDESQATKEILAQKCKTYSTKTIQQDSNKLPCPLGPLTVWHEEHVLNKNEATTKNLNGLPIKEVPSLERNEGRIAQPHHGVPYFRNILQSETEKLTSHCFEWDRKLELDIPDDAKDLIRTAVGQTRLLMKERFKQFEGLVDDCEYKRGIKETTCTDLDGFWDMVSFQIEDVIHKFNNLIKLEESGWQVNNNMNHNMNKNVFRKKVVSGIASKPKQDDAGRIAARNRLAAIKNAMRERIRQEECAETAVSVIPKEVDKIVFDAGFFRVESPVKLFSGLSVSSEGPSQRLGTPKSVNKAVSQSRNEMGIPQQTTSPENAGPQNTKSEHVKKTLFLSIPESRSSIEDAQCPGLPDLIEENHVVNKTDLKVDCLSSERMSLPLLAGGVADDINTNKKEGISDVVEGMELNSSITSQDVLMSSPEKNTASQNSILEEGETKISQSELFDNKSLTTECHLLDSPGLNCSNPFTQLERRHQEHARHISFGGNLITFSPLQPGEF [DLGAP5]	49.6 °C	49.5 °C	-0.122	0.097	0.319	1.63
